Measurements from patent US20180273626A1 (published 2018).

Biological target: T1, FcεRIα (human, UniProt P12319 26-201)
T1 chain: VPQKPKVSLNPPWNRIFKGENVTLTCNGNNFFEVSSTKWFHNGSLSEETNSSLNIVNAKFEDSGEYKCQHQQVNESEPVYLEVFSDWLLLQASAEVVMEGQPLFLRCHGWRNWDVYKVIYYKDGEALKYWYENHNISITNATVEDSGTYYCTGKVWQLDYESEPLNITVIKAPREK
Test: SPR; mammalian derived

B1: IgE-R419N-Fc3-4 (other)
chain: CADSNPRGVSAYLSRPSPFDLFIRKSPTITCLVVDLAPSKGTVNLTWSRASGKPVNHSTRKEEKQRNGTLTVTSTLPVGTRDWIEGETYQCNVTHPHLPRALMRSTTKTSGPRAAPEVYAFATPEWPGSRDKRTLACLIQNFMPEDISVQWLHNEVQLPDARHSTTQPRKTKGSGFFVFSRLEVTRAEWEQKDEFICRAVHEAASPSQTVQRAVSVNP
modifications: additional N-linked glycan at N419 (Asn-92 of SEQ ID NO: 2)
- Kd: 2.26 nM
